Measured values taken from US20210363204A1.

What was measured:
Experiment in all cases: cell-based or functional assay
human Nav1.6 (human) = human Nav1.6 (human) (UniProt Q9UQD0)
human Nav1.7 (human) = human Nav1.7 (human) (UniProt Q15858)
human Nav1.5 (human) = human Nav1.5 (human) (UniProt Q14524)

**Q.** Which results are given for recombinant Protoxin-II (peptide)?
**A.** IC50, QPatch electrophysiology assay (human Nav1.6 (human)): 6.2e-08 M; ratio of IC50 for Nav1.6 to IC50 for Nav1.7, QPatch (human Nav1.6 (human)): 28 fold

**Q.** With wild type Protoxin-II (peptide) as the substance, how does the IC50, FLIPR Tetra membrane depolarization assay (human Nav1.7 (human)) read?
**A.** The IC50, FLIPR Tetra membrane depolarization assay was 4 nM.

**Q.** Which hNav1.5 QPatch IC50 (human Nav1.5 (human)) does the source give for “recombinant Protoxin-II NV1D12 (peptide)” here?
**A.** The hNav1.5 QPatch IC50 was over 1000 nM.
